In the experiment the target is PP2A B56γ1 30-380 (UniProt Q13362). Briefly: ITC.
The mark [1] stands for this setting: reference: wild type, sites T680.
[2] abbreviates: reference: wild type, sites S670.
[3] abbreviates: reference: wild type, sites S676.

In PMC4930772 one finds KD data, which are given here for 14 substances.

As for “BubR1 647-720 (from UniProt O60566) SSD (T680D)”, the KD result under setting [1] was “same; reference 2.91 ± 0.50”.

As for “BubR1 647-720 (from UniProt O60566) 3D (S670D/S676D/T680D)”, where the note is “reference: wild type, sites S670,S676,T680”, the KD entry is “same; reference 2.91 ± 0.50”.

Take “BubR1 667-681 (from UniProt O60566) B56γ1 R188A”: the KD entry (reference: B56γ1 wild type, sites S670) is listed as “weaker; reference 0.25 ± 0.06”.

Turning to “BubR1 647-720 (from UniProt O60566) S670A”, under setting [2], the KD result is on record as “same; reference 2.91 ± 0.50”.

For the substance “BubR1 667-681 (from UniProt O60566) pS670 15-mer”, where the note is “reference: unphosphorylated 15-mer, sites S670”, the KD result is recorded as “stronger; reference 2.80 ± 0.30”.

In the case of “BubR1 647-720 (from UniProt O60566) DSD (S670D/T680D)”, under “reference: wild type, sites S670,T680”, the KD result was “same; reference 2.91 ± 0.50”.

For the substance “BubR1 667-681 (from UniProt O60566) pS676 15-mer”, under “reference: unphosphorylated 15-mer, sites S676”, the KD result is “stronger; reference 2.80 ± 0.30”.

Consider “BubR1 647-720 (from UniProt O60566) SDT (S676D)”, for which the KD result under setting [3] is “same; reference 2.91 ± 0.50”.

“BubR1 647-720 (from UniProt O60566) DST (S670D)”: under setting [2], the KD result is “same; reference 2.91 ± 0.50”.

“BubR1 647-720 (from UniProt O60566) S676A”: under setting [3], the KD result is reported as “same; reference 2.91 ± 0.50”.

For the substance “BubR1 647-720 (from UniProt O60566) DDT (S670D/S676D)”, the KD entry (reference: wild type, sites S670,S676) is “same; reference 2.91 ± 0.50”.

Take “BubR1 647-720 (from UniProt O60566) AAAA (E678A/T680A/H681A)”: the KD entry under setting [1] is reported as “weaker; reference 2.91 ± 0.50”.

Take “BubR1 647-720 (from UniProt O60566) SDD (S676D/T680D)”: the KD entry (reference: wild type, sites S676,T680) is on record as “same; reference 2.91 ± 0.50”.

As to “BubR1 667-681 (from UniProt O60566) pS676/pT680 15-mer”, the KD entry (reference: pS676 15-mer, sites T680) is listed as “same; reference 0.69 ± 0.11” and the KD entry (reference: unphosphorylated 15-mer, sites S676,T680) is “stronger; reference 2.80 ± 0.30”.
